Test results: patent US20240425589A1, “CYTOTOXICITY-INDUCING THERAPEUTIC AGENT FOR USE IN TREATMENT OF CANCER” (CHUGAI SEIYAKU KABUSHIKI KAISHA, priority 2021, published 2024)

B1: CS2961: anti-CLDN6/CD3 bispecific antibody comprising CLDN6 binding Fv CLDN6AE25EK and a CD3 binding Fv (SEQ ID NOs 184, 185) (antibody, V domains shown)
VH: QVQLVESGGGVVQPGGSLRLSCAASGFTFSNAWMHWVRKAPGKGLEWVAQIKDKSQNYATYVAESVKGRFTISRADSKNSIYLQMNSLKTEDTAVYYCRYVHYAAGYGVDIWGQGTTVTVSS
VL: DIVMTQSPLSLPVTPGEPASISCRSSQPLVHSNRNTYLHWYQEKPGQAPRLLIYKVSNRFSGVPDRFSGSGSGTDFTLKISRVEAEDVGVYYCGQGTQVPYTFGQGTKLEIK
modifications: CLDN6 binding Fv CLDN6AE25EK lacks SEQ ID
B2: CS3348: anti-CLDN6/CD3 bispecific antibody, chains SEQ ID NOs 193, 195, 194, 192; used as control (protein)
chain 1: QVQLVESGGGVVQPGGSLRLSCAASGFTFSSYTMSWVREAPGQGLEWMGTISSGGGRTYYPDSVKGRFTISRDNSKNTLYLQMNSLRDEDTAVYYCARGDYRYDGFAYWGEGTLVTVSSASTKGPSVFPLAPSSKSTSGGTAALGCLVEDYFPEPVTVSWNSGALTSGVHTFPAVLESSGLYSLSSVVTVPSSSLGTQTYICNVNHKPSNTKVDERVEPKSCDKTHTCPPCPAPEAAGGPSVFLFPPKPKDTLMISRTPEVTCVVVDVSHEDPEVKFNWYVDGVEVHNAKTKPREEQYASTYRVVSVLTVLHQDWLNGKEYKCKVSNKALPAPIEKTISKAKGQPREPQVYTLPPSREEMTKNQVSLTCLVKGFYPSDIAVEWESNGQPENNYKTTPPVLDSDGSFFLYSKLTVDKSRWQQGNVFSCSVMHEALHNHYTQESLSLSP
chain 2: DIQMTQSPSSLSASVGDRVTITCRASYNIDSYLAWYQKKPGKAPELLIYYSTLLVDGVPDRFSGSRSGTDFTLTISSLQPEDFATYYCQHYYSIPYTFGQGTKVEIERTVAAPSVFIFPPSDKQLKSGTAKVVCLLNNFYPREAKVQWKVDNALQSGNSKESVTEQDSKDSTYSLSSTLTLSKADYEKHKVYACEVTHQGLSSPVTKSFNRGEC
chain 3: QVQLVESGGGVVQPGGSLRLSCAASGFTFSNAWMHWVRKAPGKGLEWVAQIKDKSQNYATYVAESVKGRFTISRADSKNSIYLQMNSLKTEDTAVYYCRYVHYAAGYGVDIWGQGTTVTVSSASTKGPSVFPLAPSSKSTSGGTAALGCLVKDYFPEPVTVSWNSGALTSGVHTFPAVLKSSGLYSLSSVVTVPSSSLGTQTYICNVNHKPSNTKVDKRVEPKSCDKTHTCPPCPAPEAAGGPSVFLFPPKPKDTLMISRTPEVTCVVVDVSHEDPEVKFNWYVDGVEVHNAKTKPREEQYASTYRVVSVLTVLHQDWLNGKEYKCKVSNKALPAPIEKTISKAKGQPREPQVYTLPPSRKEMTKNQVSLTCLVKGFYPSDIAVEWESNGQPENNYKTTPPVLDSDGSFFLYSKLTVDKSRWQQGNVFSCSVMHEALHNHYTQKSLSLSP
chain 4: DIVMTQSPLSLPVTPGEPASISCRSSQPLVHSNRNTYLHWYQEKPGQAPRLLIYKVSNRFSGVPDRFSGSGSGTDFTLKISRVEAEDVGVYYCGQGTQVPYTFGQGTKLEIKRTVAAPSVFIFPPSDEQLKSGTAEVVCLLNNFYPREAKVQWKVDNALQSGNSEESVTEQDSKDSTYSLSSTLELSKADYEKHKVYACEVTHQGLSSPVTKSFNRGEC

What was measured:
[1] = tested on: hCLDN6/BaF, hCLDN3/BaF, hCLDN4/BaF, and hCLDN9/BaF; test: FACS analysis of specificity against CLDN family; type: binding, human; conditions: 15 micro g/ml, compared with 6PHU3/TR01
Description: Amino acid sequences are highly conserved among CLDN3, CLDN4, CLDN6 and CLDN9. Thus we examined CLDN6 binding specificity of CLDN6 binding Fv comprising 65HQ39E as VH and 54L0532Q38K as VL, by FACS analysis. hCLDN6/BaF, hCLDN3/BaF, hCLDN4/BaF, and hCLDN9/BaF were incubated with an anti-CLDN6/CD3 bispecific antibody (CS2961) comprising the CLDN6 binding Fv CLDN6AE25EK and a CD3 binding Fv (heavy chain variable region SEQ ID NO: 184, light chain variable region SEQ ID NO: 185) at 15 micro g/ml. Another anti-CLDN6/CD3 bispecific antibody (6PHU3/TR01) and an antibody without binding capability to CLDN6 (KLH/TR01) were used as a staining control. 6PHU3/TR01 and KLH/TR01 comprise the same CD3 binding Fv (heavy chain variable region SEQ ID No: 188, light chain variable region SEQ ID NO: 189). The CLDN6 binding Fv of 6PHU3/TR01 comprises a heavy chain variable region shown in SEQ ID NO: 190 and a light chain variable region shown in SEQ ID NO: 191. KLH/TR01 comprises a KLH binding Fv (heavy chain variable region SEQ ID NO: 186, light chain variable region SEQ ID NO: 187).
Binding of each antibody was detected with Alexa Fluor 488-conjugated anti human IgG (Invitrogen). Dead cells were separated by eFlour 780 (Invitrogen) staining. […]

[2] = Single dose toxicology study; type: in vivo, cynomolgus monkey; conditions: cynomolgus monkey, in vivo, iv
Description: Potential toxicity of PPU4135 antibody (anti-CLDN6/Dual-Fab tri-specific antibody) was evaluated in toxicity study using cynomolgus monkeys compared with CS3348 antibody (anti-CLDN6/CD3 bispecific antibody). Because both PPU4135 and CS3348 antibodies cross-reacted with their antigens of cynomolgus monkey, cynomolgus monkey was selected as the animal species for evaluations in the in vivo toxicology studies. Since toxicological findings seemed to be more sensitive in male than female animals in the toxicity study with CS3348 (FIG. 14), 2 males were used for evaluation of the PPU4135-mediated toxicity. In these studies, dose levels were set at 100 (for CS3348) or 90 (for PPU4135) micro g/kg, which were approximately 2.57-fold efficacious concentration producing 80% of the maximal response.

Molecule	specificity towards CLDN6 among CLDN3, CLDN4, CLDN6, CLDN9 [1]	AST, ALT, GLDH, ALP, TBIL, GGT, TBA and CRP [2]
B1	better specificity towards CLDN6	–
B2	–	Increased
